{"source": "patent US20230272114A1", "assay_in_all_cases": "Biacore SPR", "key": {"human FcγRI (human)": {"target": "human FcγRI (human) (UniProt P12314)", "sequence (P12314 16-288)": "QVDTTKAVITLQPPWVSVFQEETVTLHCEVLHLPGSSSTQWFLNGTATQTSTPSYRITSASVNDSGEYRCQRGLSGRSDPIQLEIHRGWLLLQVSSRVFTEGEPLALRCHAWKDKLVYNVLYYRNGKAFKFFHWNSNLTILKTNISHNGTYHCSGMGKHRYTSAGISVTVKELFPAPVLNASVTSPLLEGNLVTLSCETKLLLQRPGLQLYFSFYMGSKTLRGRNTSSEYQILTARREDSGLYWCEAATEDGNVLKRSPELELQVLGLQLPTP"}, "[1]": {"target": "human H131 FcγRIIa (human) (UniProt P12318)"}, "[2]": {"target": "human V158 FcγRIIIa (human) (UniProt P08637)"}, "[3]": {"target": "recombinant human FcγRIIb protein (R&D Systems) (human) (UniProt P31994)", "sequence (P31994 46-217)": "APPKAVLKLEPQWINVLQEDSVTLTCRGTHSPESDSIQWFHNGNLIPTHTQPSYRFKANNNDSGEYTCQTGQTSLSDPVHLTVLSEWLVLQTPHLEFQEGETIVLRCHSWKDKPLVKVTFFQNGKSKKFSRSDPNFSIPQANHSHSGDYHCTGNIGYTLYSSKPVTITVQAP"}}}
{"substance": "anti-CD19 antibody HuAM4G7 IgG1 Fc variant S239D/S267E", "values": [{"measurement": "Kd", "setting": "human FcγRI (human)", "result": 0.17, "unit": "nM"}, {"measurement": "Kd", "setting": "[1]", "result": 700, "unit": "nM"}, {"measurement": "Kd", "setting": "[2]", "result": 62, "unit": "nM"}, {"measurement": "Kd", "setting": "[3]", "result": 12, "unit": "nM"}]}
